Tested on: Escherichia coli TOP10
Assay: shrunken log2 fold change of peptide-encoding DNA abundance (4.5 h post-induction vs induction); higher = less antimicrobial activity (less host growth inhibition)
Settings: time post-induction: 4.5 h; library: site-saturation at positions 5, 18, 19, 20
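Also: peptides expressed intracellularly from a pBAD plasmid library in pooled LB shake-flask culture, induced with 0.3% L-arabinose, DNA abundance read by NGS, three biological replicates, DESeq2 with apeglm shrinkage.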

Compared with RRIRRRPPRLPRPRPRPDCAPRP, RRIRVRPPRLPRPRPRPFNWPRP is lower in “shrunken log2 fold change” value: 0.345 for the first, -0.498 for the second.

Compared with RRIRKRPPRLPRPRPRPDCGPRP, RRIRYRPPRLPRPRPRPRNVPRP is lower in “shrunken log2 fold change” value: 0.016 for the first, -0.324 for the second.

Going from RRIRFRPPRLPRPRPRPVMMPRP to RRIRLRPPRLPRPRPRPLKSPRP, the “shrunken log2 fold change” value rises from -0.43 to -0.146.

Compared with RRIRMRPPRLPRPRPRPFCDPRP, RRIRMRPPRLPRPRPRPVARPRP is higher in “shrunken log2 fold change” value: 0.179 for the first, 0.407 for the second.

Compared with RRIRMRPPRLPRPRPRPKDQPRP, RRIRRRPPRLPRPRPRPHFSPRP is lower in “shrunken log2 fold change” value: 2.28 for the first, -0.187 for the second.

Compared with RRIRLRPPRLPRPRPRPDGDPRP, RRIRKRPPRLPRPRPRPIIRPRP is lower in “shrunken log2 fold change” value: 0.234 for the first, -0.59 for the second.

Compared with RRIRPRPPRLPRPRPRPPSQPRP, RRIRTRPPRLPRPRPRPDTVPRP is lower in “shrunken log2 fold change” value: 0.334 for the first, -0.0391 for the second.

RRIRHRPPRLPRPRPRPDMDPRP and RRIRVRPPRLPRPRPRPFSYPRP are within 0.2 log units of each other in “shrunken log2 fold change” value: 0.0205 for the first, -0.012 for the second.

RRIRKRPPRLPRPRPRPWNWPRP and RRIRVRPPRLPRPRPRPIWEPRP are within 0.2 log units of each other in “shrunken log2 fold change” value: -0.00973 for the first, -0.00136 for the second.

First: RRIRRRPPRLPRPRPRPSKYPRP
Second: RRIRHRPPRLPRPRPRPMGTPRP
The “shrunken log2 fold change” value of the first is lower: -0.483 for the first, -0.0597 for the second.

RRIRTRPPRLPRPRPRPDVQPRP and RRIRDRPPRLPRPRPRPWVDPRP are within 0.2 log units of each other in “shrunken log2 fold change” value: 0.0493 for the first, -0.0979 for the second.

Going from RRIRIRPPRLPRPRPRPKAHPRP to RRIRWRPPRLPRPRPRPYKAPRP, the “shrunken log2 fold change” value rises from -0.242 to 0.0233.

RRIRKRPPRLPRPRPRPGDIPRP and RRIRTRPPRLPRPRPRPSMEPRP are within 0.2 log units of each other in “shrunken log2 fold change” value: -0.227 for the first, -0.136 for the second.

RRIRIRPPRLPRPRPRPKHRPRP and RRIRHRPPRLPRPRPRPMYHPRP are within 0.2 log units of each other in “shrunken log2 fold change” value: -0.103 for the first, -0.287 for the second.

First: RRIRGRPPRLPRPRPRPCCIPRP
Second: RRIRVRPPRLPRPRPRPFCVPRP
The “shrunken log2 fold change” value of the first is higher: 0.214 for the first, -0.0102 for the second.

First: RRIRFRPPRLPRPRPRPFGLPRP
Second: RRIRQRPPRLPRPRPRPLLLPRP
The “shrunken log2 fold change” value of the first is lower: -0.635 for the first, -0.363 for the second.

Compared with RRIRFRPPRLPRPRPRPGLAPRP, RRIRRRPPRLPRPRPRPKVRPRP is lower in “shrunken log2 fold change” value: 0.344 for the first, 0.111 for the second.

Going from RRIRGRPPRLPRPRPRPWYFPRP to RRIRHRPPRLPRPRPRPMGYPRP, the “shrunken log2 fold change” value rises from -0.417 to -0.134.

RRIRWRPPRLPRPRPRPIAPPRP and RRIRWRPPRLPRPRPRPLLTPRP are within 0.2 log units of each other in “shrunken log2 fold change” value: 0.45 for the first, 0.324 for the second.

First: RRIRMRPPRLPRPRPRPWLMPRP
Second: RRIRPRPPRLPRPRPRPRVMPRP
The “shrunken log2 fold change” value of the first is lower: 0.0599 for the first, 0.327 for the second.

RRIRRRPPRLPRPRPRPIHEPRP and RRIRRRPPRLPRPRPRPQCFPRP are within 0.2 log units of each other in “shrunken log2 fold change” value: 0.086 for the first, 0.212 for the second.

Going from RRIRDRPPRLPRPRPRPPARPRP to RRIRFRPPRLPRPRPRPNTDPRP, the “shrunken log2 fold change” value falls from 1.46 to -0.384.

RRIRFRPPRLPRPRPRPKGHPRP and RRIRRRPPRLPRPRPRPQFDPRP are within 0.2 log units of each other in “shrunken log2 fold change” value: 0.0587 for the first, 0.107 for the second.

First: RRIRSRPPRLPRPRPRPMKYPRP
Second: RRIRARPPRLPRPRPRPWIGPRP
The “shrunken log2 fold change” value of the first is lower: -0.278 for the first, 0.15 for the second.

RRIRTRPPRLPRPRPRPMDPPRP and RRIRWRPPRLPRPRPRPGKYPRP are within 0.2 log units of each other in “shrunken log2 fold change” value: -0.107 for the first, -0.227 for the second.

Compared with RRIRWRPPRLPRPRPRPFKAPRP, RRIRIRPPRLPRPRPRPMLHPRP is lower in “shrunken log2 fold change” value: 0.0343 for the first, -0.749 for the second.

Compared with RRIRVRPPRLPRPRPRPGLHPRP, RRIRERPPRLPRPRPRPFMTPRP is lower in “shrunken log2 fold change” value: -0.0936 for the first, -0.438 for the second.

First: RRIRQRPPRLPRPRPRPTIIPRP
Second: RRIRSRPPRLPRPRPRPMREPRP
The “shrunken log2 fold change” value of the first is lower: -0.244 for the first, 0.142 for the second.

Going from RRIRARPPRLPRPRPRPYVHPRP to RRIRRRPPRLPRPRPRPHETPRP, the “shrunken log2 fold change” value rises from -0.728 to 1.07.

Compared with RRIRQRPPRLPRPRPRPMCNPRP, RRIRFRPPRLPRPRPRPYMLPRP is lower in “shrunken log2 fold change” value: -0.389 for the first, -0.61 for the second.

First: RRIRMRPPRLPRPRPRPHYMPRP
Second: RRIRHRPPRLPRPRPRPPCAPRP
The “shrunken log2 fold change” value of the first is lower: -0.425 for the first, 0.228 for the second.

Going from RRIRWRPPRLPRPRPRPLLCPRP to RRIRYRPPRLPRPRPRPIFEPRP, the “shrunken log2 fold change” value falls from 0.15 to -0.833.

Compared with RRIRPRPPRLPRPRPRPRELPRP, RRIRYRPPRLPRPRPRPGRRPRP is higher in “shrunken log2 fold change” value: 0.39 for the first, 2.15 for the second.

First: RRIRVRPPRLPRPRPRPTSQPRP
Second: RRIRTRPPRLPRPRPRPYYLPRP
The “shrunken log2 fold change” value of the first is higher: 0.00273 for the first, -1.28 for the second.

RRIRPRPPRLPRPRPRPAASPRP and RRIRLRPPRLPRPRPRPDYLPRP are within 0.2 log units of each other in “shrunken log2 fold change” value: -0.0885 for the first, -0.114 for the second.

First: RRIRERPPRLPRPRPRPRFKPRP
Second: RRIRNRPPRLPRPRPRPHNHPRP
The “shrunken log2 fold change” value of the first is higher: 0.00602 for the first, -0.739 for the second.

RRIRPRPPRLPRPRPRPRQLPRP and RRIRNRPPRLPRPRPRPRWDPRP are within 0.2 log units of each other in “shrunken log2 fold change” value: 0.247 for the first, 0.249 for the second.

Compared with RRIRLRPPRLPRPRPRPLLWPRP, RRIRYRPPRLPRPRPRPCCMPRP is lower in “shrunken log2 fold change” value: 0.195 for the first, -0.356 for the second.

First: RRIRLRPPRLPRPRPRPLWKPRP
Second: RRIRIRPPRLPRPRPRPMHHPRP
The “shrunken log2 fold change” value of the first is higher: -0.0337 for the first, -0.4 for the second.

RRIRCRPPRLPRPRPRPKMSPRP and RRIRRRPPRLPRPRPRPSCDPRP are within 0.2 log units of each other in “shrunken log2 fold change” value: 0.157 for the first, 0.177 for the second.

First: RRIRQRPPRLPRPRPRPYASPRP
Second: RRIRQRPPRLPRPRPRPCQIPRP
The “shrunken log2 fold change” value of the first is higher: -0.00547 for the first, -0.298 for the second.

Compared with RRIRIRPPRLPRPRPRPDHGPRP, RRIRLRPPRLPRPRPRPLSNPRP is lower in “shrunken log2 fold change” value: 0.0143 for the first, -0.782 for the second.

First: RRIRGRPPRLPRPRPRPCMGPRP
Second: RRIRLRPPRLPRPRPRPWADPRP
The “shrunken log2 fold change” value of the first is higher: 0.289 for the first, -0.118 for the second.

RRIRPRPPRLPRPRPRPVFSPRP and RRIRMRPPRLPRPRPRPKNGPRP are within 0.2 log units of each other in “shrunken log2 fold change” value: -0.00413 for the first, 0.0732 for the second.

Going from RRIRLRPPRLPRPRPRPQFYPRP to RRIRSRPPRLPRPRPRPQHEPRP, the “shrunken log2 fold change” value rises from -0.727 to -0.296.

In the case of RRIRWRPPRLPRPRPRPKEPPRP, the “shrunken log2 fold change” value is reported as 0.117.

From the supplement of paper PMC9112550, “Optimization of the antimicrobial peptide Bac7 by deep mutational scanning” (BMC Biology, 2022)
